Where two headings read alike, the source gives them in different places.
Columns and labels:
Assay in all cases: cell-based or functional assay
[1] = molecular target: T1, VEGF (human, UniProt P15692-4)
[2] = molecular target: T2, human Tie2 (human, UniProt Q02763 23-1124)
[3] = molecular target: T1, VEGF; remark: listed apart in the source
[4] = molecular target: T1, VEGF; remark: listed apart in the source
[5] = molecular target: T2, human Tie2; remark: listed apart in the source
[6] = molecular target: T2, human Tie2; remark: listed apart in the source
[7] = molecular target: T2, human Tie2; remark: listed apart in the source
[8] = molecular target: T1, VEGF; remark: listed apart in the source
[9] = molecular target: T2, human Tie2; remark: listed apart in the source
[10] = molecular target: T2, human Tie2; remark: listed apart in the source
[11] = molecular target: T2, human Tie2; remark: listed apart in the source
[12] = molecular target: T2, human Tie2; remark: listed apart in the source

T1 sequence (P15692 other isoform, or with tags, fused parts or gaps limits assumed): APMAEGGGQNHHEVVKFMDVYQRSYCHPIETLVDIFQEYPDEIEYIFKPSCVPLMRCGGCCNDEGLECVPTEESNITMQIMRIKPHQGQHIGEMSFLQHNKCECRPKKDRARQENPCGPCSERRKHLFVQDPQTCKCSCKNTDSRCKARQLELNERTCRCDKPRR
T2 sequence (Q02763 23-1124): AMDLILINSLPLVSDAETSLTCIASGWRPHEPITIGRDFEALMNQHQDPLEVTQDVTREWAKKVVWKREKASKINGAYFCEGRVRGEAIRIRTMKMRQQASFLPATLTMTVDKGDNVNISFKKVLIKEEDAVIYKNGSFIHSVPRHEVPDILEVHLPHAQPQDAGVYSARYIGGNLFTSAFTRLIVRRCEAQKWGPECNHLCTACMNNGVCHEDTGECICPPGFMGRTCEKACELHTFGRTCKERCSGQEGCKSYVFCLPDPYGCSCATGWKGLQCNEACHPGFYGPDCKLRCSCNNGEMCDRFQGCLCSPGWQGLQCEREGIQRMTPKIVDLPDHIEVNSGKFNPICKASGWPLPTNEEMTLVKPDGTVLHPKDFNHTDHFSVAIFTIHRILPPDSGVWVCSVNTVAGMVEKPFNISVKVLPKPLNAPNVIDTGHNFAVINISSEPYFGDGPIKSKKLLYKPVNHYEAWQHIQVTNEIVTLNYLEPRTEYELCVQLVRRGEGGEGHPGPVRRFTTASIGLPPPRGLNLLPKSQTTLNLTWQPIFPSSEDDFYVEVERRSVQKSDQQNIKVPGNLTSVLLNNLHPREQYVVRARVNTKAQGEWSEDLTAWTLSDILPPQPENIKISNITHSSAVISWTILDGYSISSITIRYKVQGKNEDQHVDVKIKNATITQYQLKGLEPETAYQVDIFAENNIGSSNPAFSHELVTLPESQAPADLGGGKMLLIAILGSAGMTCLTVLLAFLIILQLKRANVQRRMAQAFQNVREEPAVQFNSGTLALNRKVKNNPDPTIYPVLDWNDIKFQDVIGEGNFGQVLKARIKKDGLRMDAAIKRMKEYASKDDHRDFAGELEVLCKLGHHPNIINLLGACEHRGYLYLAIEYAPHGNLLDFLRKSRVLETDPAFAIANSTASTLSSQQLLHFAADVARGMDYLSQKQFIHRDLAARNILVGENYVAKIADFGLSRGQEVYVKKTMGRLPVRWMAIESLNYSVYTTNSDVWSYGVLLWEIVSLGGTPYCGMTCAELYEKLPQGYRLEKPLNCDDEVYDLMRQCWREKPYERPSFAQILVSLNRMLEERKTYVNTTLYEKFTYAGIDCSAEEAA

Row | Binder | EC50, VEGF neutralisation, KDR/NFAT-RE HEK293 luciferase reporter (the sheet's head prints no unit, EC50 in nM per legend paragraph 17) [1] | EC50, VEGF neutralisation, KDR/NFAT-RE HEK293 luciferase reporter [4] | EC50, pTie2 in HUVEC, W/ VEGF (panels A-C print 'W/ VEGF 50nM'; paragraph 153 says 20 nM) [Panel D] [6] | EC50, pTie2 in HUVEC, W/O VEGF [Panel D] [6] | EC50, pTie2 in HUVEC (in vitro potency) [7] | EC50, VEGF inhibition, KDR/NFAT-RE HEK293 luciferase reporter [Panel C] [8] | EC50, pTIE2 in HUVEC [Panel C] [9] | EC50, pAkt in HUVEC (MSD ELISA) [Panel B] [10] | also measured
1 | #2 (bispecific antibody, human IgG1, kappa, L234A L235A) heavy chain: DVQLVESGGGVVRPGESLRLSCTASGFTFDSYGMSWVRQAPGKGLEWVSSINVGDNTYYADSVRGRFIISRDSSRNTLYLQMNSLTAEDTAVYYCANWNSFFDYWGLGTLVTVSSASTKGPSVFPLAPSSKSTSGGTAALGCLVKDYFPEPVTVSWNSGALTSGVHTFPAVLQSSGLYSLSSVVTVPSSSLGTQTYICNVNHKPSNTKVDKKVEPKSCDKTHTCPPCPAPEAAGGPSVFLFPPKPKDTLMISRTPEVTCVVVDVSHEDPEVKFNWYVDGVEVHNAKTKPREEQYNSTYRVVSVLTVLHQDWLNGKEYKCKVSNKALGAPIEKTISKAKGQPREPQVYTLPPSREEMTKNQVSLTCLVKGFYPSDIAVEWESNGQPENNYKTTPPVLDSDGSFFLYSKLTVDKSRWQQGNVFSCSVMHEALHNHYTQKSLSLSPGKGGGGSGGGGSDIQMTQSPSSLSASVGDRVTITCRASQVIRRSLAWYQQKPGKAPKLLIYAASNLASGVPSRFSGSGSGTDFTLTISSLQPEDFATYYCQQSNTSPLTFGQGTKVEIKGQSSRSSGGGGSSGGGGSEVQLVESGGGLVQPGGSLRLSCAASGFSINGSWIFWVRQAPGKGLEWVGAIWPFGGYTHYADSVKGRFTISADTSKNTAYLQMNSLRAEDTAVYYCARWGHSTSPWAMDYWGQGTLVTVSS light chain (kappa): not shown | 0.9 nM | – | – | – | – | – | – | – | EC50, pTie2 in HUVEC (in vitro potency; the sheet's head prints no unit, EC50 in nM per legend paragraph 17) [2]: 2.1 nM; IC50 (read off the curve); % VEGF activity, KDR/NFAT-RE HEK293 luciferase reporter [Panel A] [3]: ~1 nM
2 | #13 (bispecific antibody, human IgG1, kappa, L234A L235A) heavy chain: DVQLVESGGGVVRPGESLRLSCTASGFTFDSYGMSWVRQAPGKGLEWVSSINVGDNTYYADSVRGRFIISRDSSRNTLYLQMNSLTAEDTAVYYCANWNSFFDYWGLGTLVTVSSASTKGPSVFPLAPSSKSTSGGTAALGCLVKDYFPEPVTVSWNSGALTSGVHTFPAVLQSSGLYSLSSVVTVPSSSLGTQTYICNVNHKPSNTKVDKKVEPKSCDKTHTCPPCPAPEAAGGPSVFLFPPKPKDTLMISRTPEVTCVVVDVSHEDPEVKFNWYVDGVEVHNAKTKPREEQYNSTYRVVSVLTVLHQDWLNGKEYKCKVSNKALGAPIEKTISKAKGQPREPQVYTLPPSREEMTKNQVSLTCLVKGFYPSDIAVEWESNGQPENNYKTTPPVLDSDGSFFLYSKLTVDKSRWQQGNVFSCSVMHEALHNHYTQKSLSLSPGKKEHVRVFTSNKKTMLGSSAACTYLGQDSRTVGDITLTSLFKKMESGSQTKLDRNVLKKHQHKSSPYEWNFDIGVNLETRATCNLVLKEGVSLEIGHSPSLVVDIITNTQRHTLYNTKYLHGNVTAECTLLGIEKYTANSIIFGKRSDWIIRKGDPILTDLPFKKLTVTINPSTVRCPIVLERGETMHIIEPIESYMEVFPRGTDS light chain (kappa): not shown | – | 0.854 nM | – | – | – | – | – | – | –
3 | #11 (bispecific antibody, human IgG1, kappa, L234A L235A) heavy chain: DVQLVESGGGVVRPGESLRLSCTASGFTFDSYGMSWVRQAPGKGLEWVSSINVGDNTYYADSVRGRFIISRDSSRNTLYLQMNSLTAEDTAVYYCANWNSFFDYWGLGTLVTVSSASTKGPSVFPLAPSSKSTSGGTAALGCLVKDYFPEPVTVSWNSGALTSGVHTFPAVLQSSGLYSLSSVVTVPSSSLGTQTYICNVNHKPSNTKVDKKVEPKSCDKTHTCPPCPAPEAAGGPSVFLFPPKPKDTLMASRTPEVTCVVVDVSHEDPEVKFNWYVDGVEVHNAKTKPREEQYNSTYRVVSVLTVLAQDWLNGKEYKCKVSNKALGAPIEKTISKAKGQPREPQVYTLPPSREEMTKNQVSLTCLVKGFYPSDIAVEWESNGQPENNYKTTPPVLDSDGSFFLYSKLTVDKSRWQQGNVFSCSVMHEALHNAYTQKSLSLSPGKGGGGSGGGGSDIQLTQSPSSLSASVGDRVTITCSASQDISNYLNWYQQKPGKAPKVLIYFTSSLHSGVPSRFSGSGSGTDFTLTISSLQPEDFATYYCQQYSTVPWTFGQGTKVEIKGQSSRSSGGGGSSGGGGSEVQLVESGGGLVQPGGSLRLSCAASGYDFTHYGMNWVRQAPGKGLEWVGWINTYTGEPTYAADFKRRFTFSLDTSKSTAYLQMNSLRAEDTAVYYCAKYPYYYGTSHWYFDVWGQGTLVTVSS light chain (kappa): not shown | 0.107 nM | – | – | – | – | – | – | – | –

The next lines start with results.

Row | EC50, VEGF neutralisation, KDR/NFAT-RE HEK293 luciferase reporter (the sheet's head prints no unit, EC50 in nM per legend paragraph 17) [1] | EC50, VEGF neutralisation, KDR/NFAT-RE HEK293 luciferase reporter [4] | EC50, pTie2 in HUVEC, W/ VEGF (panels A-C print 'W/ VEGF 50nM'; paragraph 153 says 20 nM) [Panel D] [6] | EC50, pTie2 in HUVEC, W/O VEGF [Panel D] [6] | EC50, pTie2 in HUVEC (in vitro potency) [7] | EC50, VEGF inhibition, KDR/NFAT-RE HEK293 luciferase reporter [Panel C] [8] | EC50, pTIE2 in HUVEC [Panel C] [9] | EC50, pAkt in HUVEC (MSD ELISA) [Panel B] [10] | Binder | also measured
4 | – | 1.3 nM | 0.39 nM | 1.33 nM | 4.2 nM | 1.6 nM | 3.56 nM | 1.33 nM | Construct #1 (bispecific antibody, human IgG1, kappa, L234A L235A) heavy: DVQLVESGGGVVRPGESLRLSCTASGFTFDSYGMSWVRQAPGKGLEWVSSINVGDNTYYADSVRGRFIISRDSSRNTLYLQMNSLTAEDTAVYYCANWNSFFDYWGLGTLVTVSSASTKGPSVFPLAPSSKSTSGGTAALGCLVKDYFPEPVTVSWNSGALTSGVHTFPAVLQSSGLYSLSSVVTVPSSSLGTQTYICNVNHKPSNTKVDKKVEPKSCDKTHTCPPCPAPEAAGGPSVFLFPPKPKDTLMISRTPEVTCVVVDVSHEDPEVKFNWYVDGVEVHNAKTKPREEQYNSTYRVVSVLTVLHQDWLNGKEYKCKVSNKALGAPIEKTISKAKGQPREPQVYTLPPSREEMTKNQVSLTCLVKGFYPSDIAVEWESNGQPENNYKTTPPVLDSDGSFFLYSKLTVDKSRWQQGNVFSCSVMHEALHNHYTQKSLSLSPGKSDTGRPFVEMYSEIPEIIHMTEGRELVIPCRVTSPNITVTLKKFPLDTLIPDGKRIIWDSRKGFIISNATYKEIGLLTCEATVNGHLYKTNYLTHRQTNTIIDVVLSPSHGIELSVGEKLVLNCTARTELNVGIDFNWEYPSSKHQHKKLVNRDLKTQSGSEMKKFLSTLTIDGVTRSDQGLYTCAASSGLMTKKNSTFVRVHEK light: not shown | phosphorylated Akt potency in HUVEC cells, against Construct #5 [5]: ~5 fold; EC50, pAkt in HUVEC (MSD ELISA) [Panel B] [11]: 0.909 nM; EC50, pTie2 in HUVEC, W/ VEGF (20 nM VEGF-165 per paragraph 153) [Panel E] [12]: 0.39 nM; EC50, pTie2 in HUVEC, W/O VEGF [Panel E] [12]: 1.33 nM
5 | – | 0.245 nM | 0.87 nM | 2.24 nM | 3.55 nM | 0.31 nM | 2.42 nM | 0.87 nM | Construct #3 (bispecific antibody, human IgG1, kappa, L234A L235A) heavy: DVQLVESGGGVVRPGESLRLSCTASGFTFDSYGMSWVRQAPGKGLEWVSSINVGDNTYYADSVRGRFIISRDSSRNTLYLQMNSLTAEDTAVYYCANWNSFFDYWGLGTLVTVSSASTKGPSVFPLAPSSKSTSGGTAALGCLVKDYFPEPVTVSWNSGALTSGVHTFPAVLQSSGLYSLSSVVTVPSSSLGTQTYICNVNHKPSNTKVDKKVEPKSCDKTHTCPPCPAPEAAGGPSVFLFPPKPKDTLMISRTPEVTCVVVDVSHEDPEVKFNWYVDGVEVHNAKTKPREEQYNSTYRVVSVLTVLHQDWLNGKEYKCKVSNKALGAPIEKTISKAKGQPREPQVYTLPPSREEMTKNQVSLTCLVKGFYPSDIAVEWESNGQPENNYKTTPPVLDSDGSFFLYSKLTVDKSRWQQGNVFSCSVMHEALHNHYTQKSLSLSPGKGGGGSGGGGSGGGGSSDTGRPFVEMYSEIPEIIHMTEGRELVIPCRVTSPNITVTLKKFPLDTLIPDGKRIIWDSRKGFIISNATYKEIGLLTCEATVNGHLYKTNYLTHRQTNTIIDVVLSPSHGIELSVGEKLVLNCTARTELNVGIDFNWEYPSSKHQHKKLVNRDLKTQSGSEMKKFLSTLTIDGVTRSDQGLYTCAASSGLMTKKNSTFVRVHEK light: not shown | –

Reference: patent US20250250343A1 (UNITY BIOTECHNOLOGY, published 2025)
